Data taken from US20190382481A1 (Janssen / Centocor, published 2019).

Columns and labels:
Assay in all cases: cell-based or functional assay
human CD33 [1] = target: T1, human CD33 (human, UniProt P20138 18-364)
human CD33 [2] = target: T1, human CD33; remark: listed apart in the source
human CD33 [3] = target: T1, human CD33; remark: listed apart in the source
cyno CD33 = cyno CD33 (cynomolgus monkey)
human CD33 [4] = target: T1, human CD33; remark: listed apart in the source

T1 sequence (P20138 18-364 limits assumed): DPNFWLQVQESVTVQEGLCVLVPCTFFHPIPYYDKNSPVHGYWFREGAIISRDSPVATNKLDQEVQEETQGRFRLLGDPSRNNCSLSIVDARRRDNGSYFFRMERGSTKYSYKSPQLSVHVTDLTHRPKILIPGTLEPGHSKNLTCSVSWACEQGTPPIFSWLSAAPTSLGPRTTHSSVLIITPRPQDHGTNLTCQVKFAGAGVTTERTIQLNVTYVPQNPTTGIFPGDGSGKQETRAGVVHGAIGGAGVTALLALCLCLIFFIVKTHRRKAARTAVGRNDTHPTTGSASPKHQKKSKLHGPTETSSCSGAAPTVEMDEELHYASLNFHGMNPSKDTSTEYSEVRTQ
Chain of cyno CD33 (cynomolgus monkey) (chain, as listed by the source limits assumed): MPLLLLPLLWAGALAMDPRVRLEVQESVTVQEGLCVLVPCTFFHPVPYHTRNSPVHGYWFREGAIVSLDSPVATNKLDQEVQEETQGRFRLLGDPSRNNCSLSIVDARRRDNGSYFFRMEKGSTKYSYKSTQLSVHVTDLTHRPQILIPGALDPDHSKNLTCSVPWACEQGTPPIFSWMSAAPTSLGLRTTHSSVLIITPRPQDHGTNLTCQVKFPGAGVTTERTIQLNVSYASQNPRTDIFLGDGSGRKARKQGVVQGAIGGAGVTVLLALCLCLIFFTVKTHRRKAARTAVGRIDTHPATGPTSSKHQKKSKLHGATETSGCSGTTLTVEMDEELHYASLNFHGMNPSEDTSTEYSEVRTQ

| Binder | Cytotoxicity EC50 (nM), T-cell mediated cytotoxicity of MOLM-13 (human CD33 [2]) | Primary AML Cell Killing EC50 (nM), ex vivo AML patient whole blood (human CD33 [3]) | further results |
| --- | --- | --- | --- |
| C33B912.CLF (antibody, human IgG1, kappa, V domains shown, IgG1 low fucose Fc glycan) VH: EVQLVESGGGLVQPGRSLRLSCAASGFTFDDYAMHWVRQAPGKGLEWVSGIGWSGGSIVYADSVKGRFKISRDNAKNSLYLQMNSLRAEDTALYYCAKDSPYGDFFDYWGQGTLVTVSS VL: not shown | – | – | EC50 ADCC (nM), MOLM-13 target cells, human NK effector cells (human CD33 [1]): 0.292 nM; EC50 ADCC (nM), MV4-11 target cells, human NK effector cells (human CD33 [1]): 2.01 nM |
| C3CB12 (bispecific antibody, human IgG4 S228P, lambda, F234A L235A) heavy 1: not shown light 1: SYELTQPPSVSVSPGQTASITCSGNKLGAKFASWYQQKPGQSPVLVIYQDNKRPSGIPERFSGSNSGNTATLTISGTQAVDEADYYCQAWDSSTVVFGGGTKLTVLGQPKAAPSVTLFPPSSEELQANKATLVCLISDFYPGAVTVAWKADSSPVKAGVETTTPSKQSNNKYAASSYLSLTPEQWKSHRSYSCQVTHEGSTVEKTVAPTECS heavy 2: EVQLVESGGGLVQPGGSLRLSCAASGFTFNTYAMNWVRQAPGKGLEWVARIRSKYNNYATYYAASVKGRFTISRDDSKNSLYLQMNSLKTEDTAVYYCARHGNFGNSYVSWFAYWGQGTLVTVSSASTKGPSVFPLAPCSRSTSESTAALGCLVKDYFPEPVTVSWNSGALTSGVHTFPAVLQSSGLYSLSSVVTVPSSSLGTKTYTCNVDHKPSNTKVDKRVESKYGPPCPPCPAPEAAGGPSVFLFPPKPKDTLMISRTPEVTCVVVDVSQEDPEVQFNWYVDGVEVHNAKTKPREEQFNSTYRVVSVLTVLHQDWLNGKEYKCKVSNKGLPSSIEKTISKAKGQPREPQVYTLPPSQEEMTKNQVSLTCLVKGFYPSDIAVEWESNGQPENNYKTTPPVLDSDGSFLLYSKLTVDKSRWQEGNVFSCSVMHEALHNHYTQKSLSLSLGK light 2: QTVVTQEPSLTVSPGGTVTLTCRSSTGAVTTSNYANWVQQKPGQAPRGLIGGTNKRAPGTPARFSGSLLGGKAALTLSGVQPEDEAEYYCALWYSNLWVFGGGTKLTVLGQPKAAPSVTLFPPSSEELQANKATLVCLISDFYPGAVTVAWKADSSPVKAGVETTTPSKQSNNKYAASSYLSLTPEQWKSHRSYSCQVTHEGSTVEKTVAPTECS | 0.268 nM | 2.63 nM | – |
| C3CB102 (bispecific antibody, human IgG4 S228P, lambda, F234A L235A) heavy 1: not shown light 1: SYELTQPPSVSVSPGQTASITCSGNKLGAKFASWYQQKPGQSPVLVIYQDNKRPSGIPERFSGSNSGNTATLTISGTQAVDEADYYCQAWDSSTVVFGGGTKLTVLGQPKAAPSVTLFPPSSEELQANKATLVCLISDFYPGAVTVAWKADSSPVKAGVETTTPSKQSNNKYAASSYLSLTPEQWKSHRSYSCQVTHEGSTVEKTVAPTECS heavy 2: QVQLQQSGPRLVRPSQTLSLTCAISGDSVFNNNAAWSWIRQSPSRGLEWLGRTYYRSKWLYDYAVSVKSRITVNPDTSRNQFTLQLNSVTPEDTALYYCARGYSSSFDYWGQGTLVTVSSASTKGPSVFPLAPCSRSTSESTAALGCLVKDYFPEPVTVSWNSGALTSGVHTFPAVLQSSGLYSLSSVVTVPSSSLGTKTYTCNVDHKPSNTKVDKRVESKYGPPCPPCPAPEAAGGPSVFLFPPKPKDTLMISRTPEVTCVVVDVSQEDPEVQFNWYVDGVEVHNAKTKPREEQFNSTYRVVSVLTVLHQDWLNGKEYKCKVSNKGLPSSIEKTISKAKGQPREPQVYTLPPSQEEMTKNQVSLTCLVKGFYPSDIAVEWESNGQPENNYKTTPPVLDSDGSFLLYSKLTVDKSRWQEGNVFSCSVMHEALHNHYTQKSLSLSLGK light 2: QSALTQPASVSGSPGQSITISCTGTSSNIGTYKFVSWYQQHPDKAPKVLLYEVSKRPSGVSSRFSGSKSGNTASLTISGLQAEDQADYHCVSYAGSGTLLFGGGTKLTVLGQPKAAPSVTLFPPSSEELQANKATLVCLISDFYPGAVTVAWKADSSPVKAGVETTTPSKQSNNKYAASSYLSLTPEQWKSHRSYSCQVTHEGSTVEKTVAPTECS | – | 4.97 nM | – |
| C3CB88 (bispecific antibody, human IgG4 S228P, kappa, lambda, F234A L235A) heavy 1: not shown light 1: not shown heavy 2: EVQLVESGGGLVQPGGSLRLSCAASGFTFNTYAMNWVRQAPGKGLEWVARIRSKYNNYATYYAASVKGRFTISRDDSKNSLYLQMNSLKTEDTAVYYCARHGNFGNSYVSWFAYWGQGTLVTVSSASTKGPSVFPLAPCSRSTSESTAALGCLVKDYFPEPVTVSWNSGALTSGVHTFPAVLQSSGLYSLSSVVTVPSSSLGTKTYTCNVDHKPSNTKVDKRVESKYGPPCPPCPAPEAAGGPSVFLFPPKPKDTLMISRTPEVTCVVVDVSQEDPEVQFNWYVDGVEVHNAKTKPREEQFNSTYRVVSVLTVLHQDWLNGKEYKCKVSNKGLPSSIEKTISKAKGQPREPQVYTLPPSQEEMTKNQVSLTCLVKGFYPSDIAVEWESNGQPENNYKTTPPVLDSDGSFLLYSKLTVDKSRWQEGNVFSCSVMHEALHNHYTQKSLSLSLGK light 2: QTVVTQEPSLTVSPGGTVTLTCRSSTGAVTTSNYANWVQQKPGQAPRGLIGGTNKRAPGTPARFSGSLLGGKAALTLSGVQPEDEAEYYCALWYSNLWVFGGGTKLTVLGQPKAAPSVTLFPPSSEELQANKATLVCLISDFYPGAVTVAWKADSSPVKAGVETTTPSKQSNNKYAASSYLSLTPEQWKSHRSYSCQVTHEGSTVEKTVAPTECS | 0.11 nM | 0.672 nM | CD33^+ CD14^+ Killing EC50 (nM), ex vivo cynomolgus whole blood (cyno CD33): 0.89 nM; T cell activation EC50 (nM), ex vivo cynomolgus whole blood (cyno CD33): 0.02 nM; CD33^+ CD14^+ Killing EC50 (nM), ex vivo human whole blood (human CD33 [4]): 0.506 nM; MOLM13 Killing EC50 (nM), ex vivo human whole blood (human CD33 [4]): 0.671 nM |
| C3CB103 (bispecific antibody, human IgG4 S228P, lambda, F234A L235A) heavy 1: not shown light 1: SYELTQPPSVSVSPGQTASITCSGDKLGDKYACWYQQKPGQSPVLVIYQDGKRPSGIPERFSGSNFGNKATLTISGTQAMDEADYYCQAWDRNTVVFGGGTKLTVLGQPKAAPSVTLFPPSSEELQANKATLVCLISDFYPGAVTVAWKADSSPVKAGVETTTPSKQSNNKYAASSYLSLTPEQWKSHRSYSCQVTHEGSTVEKTVAPTECS heavy 2: QVQLQQSGPRLVRPSQTLSLTCAISGDSVFNNNAAWSWIRQSPSRGLEWLGRTYYRSKWLYDYAVSVKSRITVNPDTSRNQFTLQLNSVTPEDTALYYCARGYSSSFDYWGQGTLVTVSSASTKGPSVFPLAPCSRSTSESTAALGCLVKDYFPEPVTVSWNSGALTSGVHTFPAVLQSSGLYSLSSVVTVPSSSLGTKTYTCNVDHKPSNTKVDKRVESKYGPPCPPCPAPEAAGGPSVFLFPPKPKDTLMISRTPEVTCVVVDVSQEDPEVQFNWYVDGVEVHNAKTKPREEQFNSTYRVVSVLTVLHQDWLNGKEYKCKVSNKGLPSSIEKTISKAKGQPREPQVYTLPPSQEEMTKNQVSLTCLVKGFYPSDIAVEWESNGQPENNYKTTPPVLDSDGSFLLYSKLTVDKSRWQEGNVFSCSVMHEALHNHYTQKSLSLSLGK light 2: QSALTQPASVSGSPGQSITISCTGTSSNIGTYKFVSWYQQHPDKAPKVLLYEVSKRPSGVSSRFSGSKSGNTASLTISGLQAEDQADYHCVSYAGSGTLLFGGGTKLTVLGQPKAAPSVTLFPPSSEELQANKATLVCLISDFYPGAVTVAWKADSSPVKAGVETTTPSKQSNNKYAASSYLSLTPEQWKSHRSYSCQVTHEGSTVEKTVAPTECS | – | 4.19 nM | – |
| C33B48.CLF (antibody, human IgG1, lambda, IgG1 low fucose Fc glycan) heavy: not shown light: QSALTQPASVSGSPGQSITISCTGTSSDVGDYNYVSWYQQHPGKVPKLMIYDVSNRPSGVSNRFSGSMSGNTASLTISGLQAEDEADYYCSSYSSSSALEVFGGGTKLTVLGQPKAAPSVTLFPPSSEELQANKATLVCLISDFYPGAVTVAWKADSSPVKAGVETTTPSKQSNNKYAASSYLSLTPEQWKSHRSYSCQVTHEGSTVEKTVAPTECS | – | – | EC50 ADCC (nM), MOLM-13 target cells, human NK effector cells (human CD33 [1]): 0.023 nM; EC50 ADCC (nM), MV4-11 target cells, human NK effector cells (human CD33 [1]): 0.113 nM |
| C3CB7 (bispecific antibody, human IgG4 S228P, lambda, F234A L235A) heavy 1: not shown light 1: QSALTQPASVSGSPGQSITISCTGTSSDVGDYNYVSWYQQHPGKVPKLMIYDVSNRPSGVSNRFSGSMSGNTASLTISGLQAEDEADYYCSSYSSSSALEVFGGGTKLTVLGQPKAAPSVTLFPPSSEELQANKATLVCLISDFYPGAVTVAWKADSSPVKAGVETTTPSKQSNNKYAASSYLSLTPEQWKSHRSYSCQVTHEGSTVEKTVAPTECS heavy 2: EVQLVESGGGLVQPGGSLRLSCAASGFTFNTYAMNWVRQAPGKGLEWVARIRSKYNNYATYYAASVKGRFTISRDDSKNSLYLQMNSLKTEDTAVYYCARHGNFGNSYVSWFAYWGQGTLVTVSSASTKGPSVFPLAPCSRSTSESTAALGCLVKDYFPEPVTVSWNSGALTSGVHTFPAVLQSSGLYSLSSVVTVPSSSLGTKTYTCNVDHKPSNTKVDKRVESKYGPPCPPCPAPEAAGGPSVFLFPPKPKDTLMISRTPEVTCVVVDVSQEDPEVQFNWYVDGVEVHNAKTKPREEQFNSTYRVVSVLTVLHQDWLNGKEYKCKVSNKGLPSSIEKTISKAKGQPREPQVYTLPPSQEEMTKNQVSLTCLVKGFYPSDIAVEWESNGQPENNYKTTPPVLDSDGSFLLYSKLTVDKSRWQEGNVFSCSVMHEALHNHYTQKSLSLSLGK light 2: QTVVTQEPSLTVSPGGTVTLTCRSSTGAVTTSNYANWVQQKPGQAPRGLIGGTNKRAPGTPARFSGSLLGGKAALTLSGVQPEDEAEYYCALWYSNLWVFGGGTKLTVLGQPKAAPSVTLFPPSSEELQANKATLVCLISDFYPGAVTVAWKADSSPVKAGVETTTPSKQSNNKYAASSYLSLTPEQWKSHRSYSCQVTHEGSTVEKTVAPTECS | 0.0213 nM | 0.332 nM | – |
| C3CB97 (bispecific antibody, human IgG4 S228P, lambda, F234A L235A) heavy 1: not shown light 1: QSALTQPASVSGSPGQSITISCTGTSSDVGDYNYVSWYQQHPGKVPKLMIYDVSNRPSGVSNRFSGSMSGNTASLTISGLQAEDEADYYCSSYSSSSALEVFGGGTKLTVLGQPKAAPSVTLFPPSSEELQANKATLVCLISDFYPGAVTVAWKADSSPVKAGVETTTPSKQSNNKYAASSYLSLTPEQWKSHRSYSCQVTHEGSTVEKTVAPTECS heavy 2: QVQLQQSGPRLVRPSQTLSLTCAISGDSVFNNNAAWSWIRQSPSRGLEWLGRTYYRSKWLYDYAVSVKSRITVNPDTSRNQFTLQLNSVTPEDTALYYCARGYSSSFDYWGQGTLVTVSSASTKGPSVFPLAPCSRSTSESTAALGCLVKDYFPEPVTVSWNSGALTSGVHTFPAVLQSSGLYSLSSVVTVPSSSLGTKTYTCNVDHKPSNTKVDKRVESKYGPPCPPCPAPEAAGGPSVFLFPPKPKDTLMISRTPEVTCVVVDVSQEDPEVQFNWYVDGVEVHNAKTKPREEQFNSTYRVVSVLTVLHQDWLNGKEYKCKVSNKGLPSSIEKTISKAKGQPREPQVYTLPPSQEEMTKNQVSLTCLVKGFYPSDIAVEWESNGQPENNYKTTPPVLDSDGSFLLYSKLTVDKSRWQEGNVFSCSVMHEALHNHYTQKSLSLSLGK light 2: QSALTQPASVSGSPGQSITISCTGTSSNIGTYKFVSWYQQHPDKAPKVLLYEVSKRPSGVSSRFSGSKSGNTASLTISGLQAEDQADYHCVSYAGSGTLLFGGGTKLTVLGQPKAAPSVTLFPPSSEELQANKATLVCLISDFYPGAVTVAWKADSSPVKAGVETTTPSKQSNNKYAASSYLSLTPEQWKSHRSYSCQVTHEGSTVEKTVAPTECS | – | ~0.232 nM | – |
